In US20250270584A1, “Gene editing to provide insect resistance in crops” (The Regents of the University of California, priority 2022, published 2025):

Molecular target: 6His-CaM7 (Arabidopsis thaliana), P59220
Experiment: ITC at 25 C, peptide titrated into 6His-CaM7, 1 mM Ca2+

Binder: DQQQNHDSSSMRSTRLQRFLSL (modifications not checked) [CBD peptide]
- stoichiometry (peptide per CaM7): 1
